According to US20220347304A1 (CYTOKI PHARMA, published 2022):
Positions count from the first letter of the chain named.

B1: Derivative 1 (ligand)
chain: GPGCPISSHCRLDKSNFQQPYITNRTFMLAKEASLADNNTDVRLIGEKLFHGVSMSERCYLMKQVLNFTLEEVLFPQSDRFQPYMQEVVPFLARLSNRLSTCHIEGDDLHIQRNVQKLKDTVKKLGESGEIKAIGELDLLFMSLRNACI
modifications: C18 diacid attached by linker γGlu-OEG-OEG-C2DA-Ac to Cys at site 1C (Cys substituted at position 1 of hIL-22, after the G-P-G N-terminal peptide)
B2: Derivative 3 (ligand)
chain: B1 chain
modifications: C16 diacid attached by linker γGlu-OEG-OEG-C2DA-Ac to Cys at site 1C (Cys substituted at position 1 of hIL-22)
B3: Derivative 10 (ligand)
chain: B1 chain with N38Q, N67Q
modifications: C16 diacid attached by linker γGlu-OEG-OEG-C2DA-Ac to Cys at site 1C (Cys substituted at position 1 of hIL-22)
B4: Derivative 6 (ligand)
chain: B1 chain with N38Q, N67Q
modifications: C18 diacid attached by linker γGlu-OEG-OEG-C2DA-Ac to Cys at site 1C (Cys substituted at position 1 of hIL-22)
B5: Comparator 5 (ligand)
chain: B1 chain with N38Q, N67Q
B6: native mature human IL-22 (hIL-22) (ligand)
chain: APISSHCRLDKSNFQQPYITNRTFMLAKEASLADNNTDVRLIGEKLFHGVSMSERCYLMKQVLNFTLEEVLFPQSDRFQPYMQEVVPFLARLSNRLSTCHIEGDDLHIQRNVQKLKDTVKKLGESGEIKAIGELDLLFMSLRNACI
B7: Derivative 9 (ligand)
chain: B6 chain with A33C, N35Q, N64Q
modifications: C18 diacid attached by linker γGlu-OEG-OEG-C2DA-Ac to Cys at site 33C (Cys substituted at position 33 of hIL-22)
B8: Comparator 1 (ligand)
chain: B6 chain with A1G
B9: Derivative 8 (ligand)
chain: GAPISSCCRLDKSNFQQPYITNRTFMLAKEASLADQNTDVRLIGEKLFHGVSMSERCYLMKQVLQFTLEEVLFPQSDRFQPYMQEVVPFLARLSNRLSTCHIEGDDLHIQRNVQKLKDTVKKLGESGEIKAIGELDLLFMSLRNACI
modifications: C18 diacid attached by linker γGlu-OEG-OEG-C2DA-Ac to Cys at site 6C (Cys substituted at position 6 of hIL-22)
B10: Derivative 4 (ligand)
chain: GPGSGSGSCGSGSGSAPISSHCRLDKSNFQQPYITNRTFMLAKEASLADNNTDVRLIGEKLFHGVSMSERCYLMKQVLNFTLEEVLFPQSDRFQPYMQEVVPFLARLSNRLSTCHIEGDDLHIQRNVQKLKDTVKKLGESGEIKAIGELDLLFMSLRNACI
modifications: C16 diacid attached by linker γGlu-OEG-OEG-C2DA-Ac to Cys at site -7C (in the 15-mer N-terminal peptide)
B11: Comparator 4 (ligand)
chain: B1 chain
B12: Derivative 2 (ligand)
chain: B10 chain
modifications: C18 diacid attached by linker γGlu-OEG-OEG-C2DA-Ac to Cys at site -7C (in the 15-mer N-terminal peptide G-P-G-S-G-S-G-S-C-G-S-G-S-G-S, numbered negatively from hIL-22 residue 1)

What follows are binders tested against T1, human IL-22 receptor (human IL-22Ra and human IL-10Rb) on cells (human, UniProt Q8N6P7 16-574; Q08334 20-325) (assay: cell-based or functional assay).
T1 sequence (looked up) 1: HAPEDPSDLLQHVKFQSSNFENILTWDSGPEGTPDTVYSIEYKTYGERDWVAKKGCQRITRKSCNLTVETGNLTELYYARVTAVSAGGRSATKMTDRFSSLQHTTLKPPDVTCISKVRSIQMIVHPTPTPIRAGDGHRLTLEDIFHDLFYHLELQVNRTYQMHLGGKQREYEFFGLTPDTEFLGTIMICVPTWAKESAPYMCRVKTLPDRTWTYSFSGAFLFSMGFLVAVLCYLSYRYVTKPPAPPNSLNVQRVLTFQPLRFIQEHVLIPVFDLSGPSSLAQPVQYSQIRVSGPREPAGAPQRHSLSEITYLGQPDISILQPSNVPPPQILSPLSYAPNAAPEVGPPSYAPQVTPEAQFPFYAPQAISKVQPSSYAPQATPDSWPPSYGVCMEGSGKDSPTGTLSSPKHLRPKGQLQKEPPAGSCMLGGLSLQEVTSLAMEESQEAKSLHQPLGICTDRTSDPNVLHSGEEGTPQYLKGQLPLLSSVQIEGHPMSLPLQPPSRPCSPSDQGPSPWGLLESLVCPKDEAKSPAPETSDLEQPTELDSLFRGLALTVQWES
T1 sequence (looked up) 2: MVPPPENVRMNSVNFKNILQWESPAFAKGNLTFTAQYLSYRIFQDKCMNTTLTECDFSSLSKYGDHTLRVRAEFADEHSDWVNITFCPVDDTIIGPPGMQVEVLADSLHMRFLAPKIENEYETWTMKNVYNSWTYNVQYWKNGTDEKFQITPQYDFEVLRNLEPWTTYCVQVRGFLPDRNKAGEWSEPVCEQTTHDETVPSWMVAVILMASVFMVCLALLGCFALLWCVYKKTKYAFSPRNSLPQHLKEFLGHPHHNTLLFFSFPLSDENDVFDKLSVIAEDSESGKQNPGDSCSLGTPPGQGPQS
B1 was tested, and the “potency in BHK cell reporter gene assay, fold reduction against hIL-22” value was 7 fold and the “potency in HepG2 pSTAT3 assay, fold reduction against hIL-22” value was 2.5 fold. For B2, the “potency in BHK cell reporter gene assay, fold reduction against hIL-22” value was 4 fold.

Target: T1, human IL-22 receptor (human IL-22Ra and …)
Test: cell-based or functional assay
Remark: another data set of the same source
B3 was tested, and the “EC50, luciferase reporter gene (STAT3-induced promoter) in BHK cells expressing human IL-22Ra and IL-10Rb” value (“EC50, luciferase reporter gene” for short) was 0.37 nM. B4 was tested, and the “EC50, luciferase reporter gene” value was 0.61 nM. With B1 the “EC50, luciferase reporter gene” value was 0.48 nM. B2 was tested, and the “EC50, luciferase reporter gene” value was 0.3 nM. With B5 the “EC50, luciferase reporter gene” value was 0.19 nM. In the case of B6, the “EC50, luciferase reporter gene” value is reported as 0.07 nM. For B7, the “EC50, luciferase reporter gene” value was 0.28 nM. B8 was tested, and the “EC50, luciferase reporter gene” value was 0.06 nM. In the case of B9, the “EC50, luciferase reporter gene” value is reported as 1.24 nM. For B10, the “EC50, luciferase reporter gene” value was 0.18 nM.

Target: T1, human IL-22 receptor (human IL-22Ra and …)
Test: cell-based or functional assay
Remark: another data set of the same source
B4 was tested, and the “EC50, pSTAT3 (AlphaScreen SureFire STAT3 p-Tyr705) in HepG2 cells” value was 14.9 nM. B1 was tested, and the “EC50, pSTAT3 (AlphaScreen SureFire STAT3 p-Tyr705) in HepG2 cells” value was 10.1 nM. In the case of B11, the “EC50, pSTAT3 (AlphaScreen SureFire STAT3 p-Tyr705) in HepG2 cells” value is reported as 12.1 nM. B6 was tested, and the “EC50, pSTAT3 (AlphaScreen SureFire STAT3 p-Tyr705) in HepG2 cells” value was 3.88 nM. With B8 the “EC50, pSTAT3 (AlphaScreen SureFire STAT3 p-Tyr705) in HepG2 cells” value was 4.73 nM. With B12 the “EC50, pSTAT3 (AlphaScreen SureFire STAT3 p-Tyr705) in HepG2 cells” value was 6.98 nM.
